The record followed here is patent publication US20130058911.

In this data set the test system is metmyoglobin.

Take “recombinant malate dehydrogenase (MDH) of Bacillus natto with C-terminal 6x His-tag”: the “metmyoglobin reduction activity (change in A406 with NADH)” value is given as “the activity of MDH was not found”.
In the case of “recombinant putative NAD(P)H nitroreductase (yodC) of Bacillus natto with C-terminal 6x His-tag” it was “the activity of yodC was confirmed”.
